The supplement of paper PMC10201428
± gives the standard deviation of the averaged measurements.

Tests used:
[1] = test system: VchCAST RNA-guided transposition machinery (E. coli BL21(DE3) host, lacZ target); test: relative integration efficiency (T-LR orientation) vs wild-type transposon end (log2 (normalized fold change)); transposon end mutated: left end; higher = more efficient transposition
Outline: (§1)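 Each barcoded pool, 1549 left-end or 1849 right-end transposon variants in a pUC57 mini-transposon donor, went into E. coli BL21(DE3) with a T7-driven effector plasmid (CRISPR array, tniQ-cas8-cas7-cas6, tnsA-tnsB-tnsC). Plates contained 0.1 mM IPTG and were held at 37°C for 18 h. Input plasmids and genomic integration junctions were PCR-amplified and read by Illumina sequencing, with two biological output replicates and four reference barcodes. Relative integration efficiency is the fold change of output over input barcode abundance, normalised to the reference barcodes and log-transformed.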

[2] = test system: VchCAST RNA-guided transposition machinery (E. coli BL21(DE3) host, lacZ target); test: relative integration efficiency (T-RL orientation) vs wild-type transposon end (log2 (normalized fold change)); transposon end mutated: left end; higher = more efficient transposition
Outline: as §1

Row | Sequence | relative integration efficiency (log2) [1] | relative integration efficiency (log2) [2]
1 | AATGTTGTTGATGCAACCATAAAGTGATATTTAATAATTATTTATAATCCTACCAGGCCAACACCCCACCAACGCGCGGTCGCGAGACACCCCACCAACGCCTGGTCGCGGGGGTGTCCGATCTGATTTCAGCAAAACTACTGCAGTAAGAA | -5.08 ± 3.7 | -6.45 ± 1.8
2 | AATGTTGTTGATGCAACCATAAAGTGATATTTAATAATTATTTATAATCAGCAACTTAACCACACAACCATATATTGATATCTCACAAAACAACCATAAGTTGATATTTTTGTGAATCGAGTATTTCAGCAAAACTACTGCAGTAAGAAAGT | -2.81 ± 1.1 | -4.27 ± 1.1
3 | AATGTTGTTGATGCAACCATAAAGTGATATTTAATAAGGCGGGCGCCGACTACCAGGCCAACACCCCACCAACGCGCGGTCGCGAGACACCCCACCAACGCCTGGTCGCGGGGGTGTCCGATCTGATTTCAGCAAAACTACTGCAGTAAGAA | -3.73 ± 1.5 | -7.05 ± 1.6
4 | AATGTTGTTGATGCAACCATAAAGTGATATTTAATAACTTCGTATAATGTATGCTATACGAAGTTATCAACCATATATTGATATCTCACAAAACAACCATAAGTTGATATTTTTGTGAATCGAGTATTTCAGCAAAACTACTGCAGTAAGAA | -3.76 ± 2.9 | -2.95 ± 1.1
5 | AATGTTGTTGATGCACCCATAAATTGATAATTAATAATTATTTATAATCAGCAACTTAACCACAAAACACCCATAAATTGATATTGCACAAAAGTTGGTATTCAACTATAAAATGTGAATCGAGTATTTCAGCAAAACTACTGCAGTAAGAA | -1.72 ± 0.67 | -3.68 ± 1.4
6 | AATGTTGTTGATGCAACCATAAAGTGATATGGCCGCCGGCGGGCGCCGACTACCAGGCCAACACCCCACCAACGCGCGGTCGCGAGACACCCCACCAACGCCTGGTCGCGGGGGTGTCCGATCTGATTTCAGCAAAACTACTGCAGTAAGAA | -6.67 ± 3.5 | -7.18 ± 0.63
7 | AATGTTGTTGATGCAACCATAAAGTGATATTTAATAATTATTTATACGACTACCAGGCCAACACCCCACCAACGCGCGGTCGCGAGACACCCCACCAACGCCTGGTCGCGGGGGTGTCCGATCTGATTTCAGCAAAACTACTGCAGTAAGAA | -4.47 ± 0.46 | -6.45 ± 1.3
8 | AATGTTGTTGATGCAACCATAAAGTGATATTTAATAATCAACCATATATTGATATCTCTATTTATAATCAGCAACTTAACCACAAAAACAAAACAACCATAAGTTGATATTTTTGTGAATCGAGTATTTCAGCAAAACTACTGCAGTAAGAA | -0.761 ± 1 | -2.9 ± 1.1
9 | AATGTTGTTGATGCAACCATAAAGTGATATTTACAACCATATATTGATATCTCACAAAACAACCATAAGTTGATATTTTTGTGAATCGAGTATTTCAGCAAAACTACTGCAGTAAGAAAGTTACTTCGTGGTATGGGAGGATCAAGGAGCCA | 0.662 ± 0.89 | -2.61 ± 1.1
10 | AATGTTGTTGATGCAACCATAAAGTGATATTTAATAATTATTTATAATCAGCAACTTAACCACAAAACAACCATATATTGATATCTCACAAACACCAACGCCTGGTCGCGGGGGTGTCCGATCTGATTTCAGCAAAACTACTGCAGTAAGAA | -0.664 ± 1.2 | -2.54 ± 0.9
11 | AATGTTGTTGATGCAACCATAAAGTGATAATAATTATTTATAATCAGCAACTTAACCACAAAACAACCATATATTGATATCTCACAAAACAACCATAAGTTGATATTTTTGTGAATCGAGTATTTCAGCAAAACTACTGCAGTAAGAAAGTT | -6.51 ± 1.4 | -7.71 ± 1.4
12 | AATGTTGTTGATGCAACCATAAAGTGATATTTAATAATTATTTATAATCAGCAACTTAACCACAAAACAACCATATATTGATATACAAAACAACCATAAGTTGATATTTTTGTGAATCGAGTATTTCAGCAAAACTACTGCAGTAAGAAAGT | -0.952 ± 0.93 | -4.08 ± 1.3
13 | AATGTTGTTGATGCAACCATAAAGTGATATTTAATACAACCATATATTGATATCTCATTATTTATAATCAGCAACTTAACCACAAAAACAAAACAACCATAAGTTGATATTTTTGTGAATCGAGTATTTCAGCAAAACTACTGCAGTAAGAA | -3.41 ± 3.5 | -4.61 ± 1.8
14 | AATGTTGTTGATGCAACCATAAAGTGATATTTAATAATTATTTATAATCAGCAACTTAACCACAAAATGTGAATCGAGTATTCAACCATATATTGATATCTCACAAAACAACCATAAGTTGATATTTTTCAGCAAAACTACTGCAGTAAGAA | -2.89 ± 0.26 | -4 ± 1.4
15 | AATGTTGTTGATGCAACCATAAAGTGATATTTAATAATTATTTATAATCAGCAACTTAACCACAAAACAACCATATATTGATATCTCACAAAACAACCATAAGTTGATATTTTGTGAATCGAGTATTTCAGCAAAACTACTGCAGTAAGAAA | 0.169 ± 0.12 | 0.0855 ± 0.0046
16 | AATGTTGTTGATGCAACCATAAAGTGATATTTAATAATTATTCAACCATATATTGATATCTCACAAAACAACCATAAGTTGATATTTTTATAATCAGCAACTTAACCACAAAATGTGAATCGAGTATTTCAGCAAAACTACTGCAGTAAGAA | < -10 | -6.852 ± 0.014
17 | AATGTTGTTGATGCAACCATAAAGTGATATTTAATAATTATTTATAATCAGCAACTTAACCACAAAACAACCATATATTGATATCTCACAACCATAAGTTGATATTTTTGTGAATCGAGTATTTCAGCAAAACTACTGCAGTAAGAAAGTTA | -1.81 ± 1.5 | -3.63 ± 0.88
18 | AATGTTGTTGATGCAACCATAAAGTGATATTTAATAATTATTTATAATCAGCAACTTCAACCATATATTGATATCTCACAAAACAACCATAAGTTGATATTTTTGTGAATCGAGTATTTCAGCAAAACTACTGCAGTAAGAAAGTTACTTCG | -0.903 ± 0.24 | -1.06 ± 0.45
19 | AATGTTGTTGATGCAACCATAAAGTGATATTTAATAATTCAACCATATATTGATATCTCATTTATAATCAGCAACTTAACCACAAAAACAAAACAACCATAAGTTGATATTTTTGTGAATCGAGTATTTCAGCAAAACTACTGCAGTAAGAA | -2.63 ± 2.9 | -3.05 ± 1.3
20 | AATGTTGTTGATGCAACCATAAAGTGATATTTAATAATCAACCATATATTGATATCTCACAAAACAACCATAAGTTGATATTTTTGTGAATCGAGTATTTCAGCAAAACTACTGCAGTAAGAAAGTTACTTCGTGGTATGGGAGGATCAAGG | < -10 | -7.79 ± 2.1
21 | AATGTTGTTGAAACAACCATAAAGTGATAACAACGAATCAATTAAAATCATAGGCTTAATCGAAAAACAACCATATCTTGATATCGCACAAAACAACCATAAGTTGATATTTTTGTGAATCGAGTATTTCAGCAAAACTACTGCAGTAAGAA | -0.526 ± 0.33 | -0.51 ± 0.3
22 | AATGTTGTTGATGCAACCATAAAGTGATATTTACGAGCCGAGCTCGTGCCCGGTGCCGCGGCAGACGCAACCATATATTGATATCTCACAAAACAACCATAAGTTGATATTTTTGTGAATCGAGTATTTCAGCAAAACTACTGCAGTAAGAA | -2.47 ± 1.1 | -2.33 ± 0.72
23 | AATGTTGTTGATGCAACCATAAAGTGATATTTAATAATTATTTATAATCAGCAACTTACAACCATATATTGATATCTCACCACAAAAACAAAACAACCATAAGTTGATATTTTTGTGAATCGAGTATTTCAGCAAAACTACTGCAGTAAGAA | 0.226 ± 1.1 | -0.417 ± 0.35
24 | AATGTTGTTGATGCAACCATAAAGTGATATTTAATAACTTCGTATAATGTATACTATACGAAGTTATCAACCATATATTGATATCTCACAAAACAACCATAAGTTGATATTTTTGTGAATCGAGTATTTCAGCAAAACTACTGCAGTAAGAA | -2.57 ± 2.1 | -3.05 ± 1.2
25 | AATGTTGTTGATGCAACCATAAAGTGATATTTACGTCTGTACAGCGCACAGAAGCTGGGAACTCGGCCAACCATATATTGATATCTCACAAAACAACCATAAGTTGATATTTTTGTGAATCGAGTATTTCAGCAAAACTACTGCAGTAAGAA | -3.36 ± 2.2 | -3.56 ± 1.1
26 | AATGTTGTTGATGCAACCATAAAGTGATATTTAATAATTATTTATAATCAGCAACTTAACCACAAAACAACCATATATTGATATCTCACAAAACAACCATAAGTTGATATTGTGAATCGAGTATTTCAGCAAAACTACTGCAGTAAGAAAGT | -0.0935 ± 0.19 | -0.306 ± 0.15
27 | AATGTTGTTGATGCAACCATAAAGTGATATTTAATAATTATTTATAATCAGCAACTTAACCACAAAACAACCATATATTGATCGAGACACCCCACCAACGCCTGGTCGCGGGGGTGTCCGATCTGATTTCAGCAAAACTACTGCAGTAAGAA | -2.14 ± 1.3 | -3.99 ± 1.6
28 | AATGTTGTTGATGCAACCATAAAATGATAATTAATAATTATTTATAATCAGCAACTTAACCACAAAACAACCATAAGTTGATATTTTACAAAAGTTGGTATTCAACTATAAAATGTGAATCGAGTATTTCAGCAAAACTACTGCAGTAAGAA | -1.49 ± 1.9 | -2.24 ± 0.86
29 | AATGTTGTTGATGCAACCATAAAGTGATATTTACTAGGATTCATGTCAACGTGCAAGCTTAGTTCGACAACCATATATTGATATCTCACAAAACAACCATAAGTTGATATTTTTGTGAATCGAGTATTTCAGCAAAACTACTGCAGTAAGAA | -5.46 ± 2.5 | -5.16 ± 1
